This passage reports decrease in RNLS dependent ERK phosphorylation in MiaPaCa2 cells after PMCA4b siRNA, western blot results from patent US20210024652A1.

The assay concerns the target plasma membrane calcium ATPase PMCA4b, P23634. In words: cell-based or functional assay.

Sequence of plasma membrane calcium ATPase PMCA4b, P23634 (P23634 whole entry): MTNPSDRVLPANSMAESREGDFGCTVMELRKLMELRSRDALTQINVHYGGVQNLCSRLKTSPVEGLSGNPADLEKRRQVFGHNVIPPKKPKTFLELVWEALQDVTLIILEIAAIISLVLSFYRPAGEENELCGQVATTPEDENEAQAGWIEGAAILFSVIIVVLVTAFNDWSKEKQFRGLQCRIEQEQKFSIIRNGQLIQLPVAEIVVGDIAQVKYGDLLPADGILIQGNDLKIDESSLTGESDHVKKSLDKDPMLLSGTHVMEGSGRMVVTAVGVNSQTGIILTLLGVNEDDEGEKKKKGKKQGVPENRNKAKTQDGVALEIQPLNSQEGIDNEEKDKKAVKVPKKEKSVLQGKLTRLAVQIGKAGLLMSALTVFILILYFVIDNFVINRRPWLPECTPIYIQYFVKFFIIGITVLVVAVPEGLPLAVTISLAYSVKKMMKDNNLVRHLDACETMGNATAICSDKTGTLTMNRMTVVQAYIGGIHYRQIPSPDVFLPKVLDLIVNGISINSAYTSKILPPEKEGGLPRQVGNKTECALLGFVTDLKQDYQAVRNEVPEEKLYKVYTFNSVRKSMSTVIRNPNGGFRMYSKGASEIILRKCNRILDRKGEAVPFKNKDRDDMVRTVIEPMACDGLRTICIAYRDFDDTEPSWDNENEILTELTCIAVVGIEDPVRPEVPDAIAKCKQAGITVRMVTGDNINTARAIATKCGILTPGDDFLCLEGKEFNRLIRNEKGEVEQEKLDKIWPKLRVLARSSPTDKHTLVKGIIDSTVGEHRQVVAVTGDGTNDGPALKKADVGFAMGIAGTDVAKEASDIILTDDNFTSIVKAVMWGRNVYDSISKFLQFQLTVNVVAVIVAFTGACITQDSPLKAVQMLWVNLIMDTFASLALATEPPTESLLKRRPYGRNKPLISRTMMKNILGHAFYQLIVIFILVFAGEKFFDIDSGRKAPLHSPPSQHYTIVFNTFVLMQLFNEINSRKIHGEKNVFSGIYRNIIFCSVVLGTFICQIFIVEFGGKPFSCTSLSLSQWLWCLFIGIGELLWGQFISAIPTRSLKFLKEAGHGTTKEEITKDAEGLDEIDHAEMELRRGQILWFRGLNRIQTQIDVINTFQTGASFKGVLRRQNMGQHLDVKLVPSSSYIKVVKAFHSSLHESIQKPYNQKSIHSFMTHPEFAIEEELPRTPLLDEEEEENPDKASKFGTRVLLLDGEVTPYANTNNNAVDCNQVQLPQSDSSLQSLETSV

B1: RNLS peptide RP-220 (peptide)
peptide: CIRFVSIDNKKRNIESSEIG
With B1, the decrease in RNLS dependent ERK phosphorylation in MiaPaCa2 cells after PMCA4b siRNA, western blot was 70%.
